Positions of bridges follow the written chain, without caps; N, C: chain ends. Non-standard residues stand in square brackets, D forms with d. No end group written: not given here. *: point of attachment. Acetyl(2-(4-imidazolyl)) = O=C(Cc1c[nH]cn1)*; Aib = CC(C)(N)C(=O)O
T1: human GIP receptor (human, UniProt P48546 22-466)
T1 sequence (looked up): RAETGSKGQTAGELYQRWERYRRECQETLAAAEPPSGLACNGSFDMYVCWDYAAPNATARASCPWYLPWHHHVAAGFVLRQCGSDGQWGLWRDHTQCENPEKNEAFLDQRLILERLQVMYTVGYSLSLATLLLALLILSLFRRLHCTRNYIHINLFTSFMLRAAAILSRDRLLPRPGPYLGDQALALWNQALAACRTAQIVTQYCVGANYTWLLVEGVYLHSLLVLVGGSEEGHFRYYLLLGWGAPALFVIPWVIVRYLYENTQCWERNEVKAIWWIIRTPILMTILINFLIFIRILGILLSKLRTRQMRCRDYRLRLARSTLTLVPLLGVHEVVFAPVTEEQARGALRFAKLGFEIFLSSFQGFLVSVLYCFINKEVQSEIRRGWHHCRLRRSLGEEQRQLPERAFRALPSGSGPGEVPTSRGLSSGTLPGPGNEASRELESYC

B1: triple agonist of SEQ ID NO: 97 (peptide)
peptide: Y[Aib]QGTFTSDYSKYLDEKRAKEFVQWLLDCHPSSGQPPPS
modifications: bridge 16-20; not fully specified
B2: triple agonist of SEQ ID NO: 19 (peptide)
peptide: {Acetyl(2-(4-imidazolyl))}-GQGTFTSDLSIQYDSEHQRDFIEWLKDTGPSSGAPPPSHG
modifications: not fully specified; also: ring from underlined residues, positions not shown
B3: triple agonist of SEQ ID NO: 101 (peptide)
peptide: Y[Aib]QGTFTSDYSKALDEKAAKEFVNWLLDQHPSSGQPPPSC
modifications: bridge 16-20
B4: triple agonist of SEQ ID NO: 95 (peptide)
peptide: Y[Aib]QGTFTSDYSKYLDEKRAKEFVQWLLCHHPSSGQPPPS
modifications: bridge 16-20; not fully specified
B5: triple agonist of SEQ ID NO: 23 (peptide)
peptide: Y[Aib]QGTFTSDYSKYLDECRAKEFVQWLLAQKGKKNDWKHNIT
modifications: bridge 16-20; not fully specified
B6: triple agonist of SEQ ID NO: 99 (peptide)
peptide: Y[Aib]QGTFTSDYSKALDEKAAKDFVNWLLDHHPSSGQPPPSC
modifications: bridge 16-20; not fully specified
B7: triple agonist of SEQ ID NO: 96 (peptide)
peptide: Y[Aib]QGTFTSDYSKYLDEKRAKEFVQWLLDHCPSSGQPPPS
modifications: bridge 16-20; not fully specified
B8: triple agonist of SEQ ID NO: 17 (peptide)
peptide: {Acetyl(2-(4-imidazolyl))}-GQGTFTSDLSKQMDEERAREFIEWLLAQKPSSGAPPPSHG
modifications: not fully specified; also: ring from underlined residues, positions not shown
B9: triple agonist of SEQ ID NO: 11 (peptide)
peptide: {Acetyl(2-(4-imidazolyl))}-GEGTFTSDLSKYLDSRRQQLFVQWLKAGGPSSGAPPPSHG
modifications: not fully specified; also: ring from underlined residues, positions not shown
B10: triple agonist of SEQ ID NO: 14 (peptide)
peptide: {Acetyl(2-(4-imidazolyl))}-GQGTFTSDYSIQLDEIAVRDFVEWLKNGGPSSGAPPPSHG
modifications: not fully specified; also: ring from underlined residues, positions not shown
B11: triple agonist of SEQ ID NO: 100 (peptide)
peptide: Y[Aib]QGTFTSDYSKALDEKAAKEFVQWLLDQHPSSGQPPPSC
modifications: bridge 16-20
B12: triple agonist of SEQ ID NO: 24 (peptide)
peptide: Y[Aib]QGTFTSDYSKYLDECRAKEFVQWLKNGGPSSGAPPPS
modifications: bridge 16-20
B13: triple agonist of SEQ ID NO: 2 (peptide)
peptide: H[Aib]QGTFTSDVSSYLDGQAQKEFIAWLVKGC
modifications: not fully specified
B14: triple agonist of SEQ ID NO: 12 (peptide)
peptide: {Acetyl(2-(4-imidazolyl))}-GEGTFISDLSKYMDEQAVQLFVEWLMAGGPSSGAPPPSHG
modifications: not fully specified; also: ring from underlined residues, positions not shown
B15: triple agonist of SEQ ID NO: 13 (peptide)
peptide: {Acetyl(2-(4-imidazolyl))}-GEGTFISDYSIQLDEIAVQDFVEWLLAQKPSSGAPPPSHG
modifications: not fully specified; also: ring from underlined residues, positions not shown
B16: triple agonist of SEQ ID NO: 18 (peptide)
peptide: {Acetyl(2-(4-imidazolyl))}-GQGTFTSDLSKQMDSERAREFIEWLKNTGPSSGAPPPSHG
modifications: not fully specified; also: ring from underlined residues, positions not shown
B17: triple agonist of SEQ ID NO: 22 (peptide)
peptide: Y[Aib]QGTFTSDYSKCLDEKRAKEFVQWLLDHHPSSGQPPPS
modifications: bridge 16-20; not fully specified
B18: triple agonist of SEQ ID NO: 26 (peptide)
peptide: H[Aib]QGTFTSDCSKYLDSRAAQDFVQWLLDGGPSSGAPPPS
modifications: not fully specified
B19: triple agonist of SEQ ID NO: 16 (peptide)
peptide: {Acetyl(2-(4-imidazolyl))}-GQGTFTSDLSKQMDSEAQQLFIEWLKNGGPSSGAPPPSHG
modifications: not fully specified; also: ring from underlined residues, positions not shown
B20: triple agonist of SEQ ID NO: 21 (peptide)
peptide: Y[Aib]QGTFTSDYSKYLDECRAKEFVQWLLDHHPSSGQPPPS
modifications: bridge 16-20; not fully specified
B21: triple agonist of SEQ ID NO: 102 (peptide)
peptide: Y[Aib]QGTFTSDYSKALDEKAAKDFVNWLLDQHPSSGQPPPSC
modifications: bridge 16-20
B22: triple agonist of SEQ ID NO: 98 (peptide)
peptide: Y[Aib]QGTFTSDYSKALDEKAAKEFVNWLLDHHPSSGQPPPSC
modifications: bridge 16-20; not fully specified
B23: triple agonist of SEQ ID NO: 25 (peptide)
peptide: H[Aib]QGTFTSDCSKYLDERAAQDFVQWLLDGGPSSGAPPPS
modifications: not fully specified
B24: triple agonist of SEQ ID NO: 20 (peptide)
peptide: {Acetyl(2-(4-imidazolyl))}-GQGTFTSDLSIQYEEEAQQDFVEWLKDTGPSSGAPPPSHG
modifications: not fully specified; also: ring from underlined residues, positions not shown
B25: triple agonist of SEQ ID NO: 3 (peptide)
peptide: H[Aib]QGTFTSDVSSYLLGQAAKQFIAWLVKGGGPSSGAPPPSC
modifications: not fully specified

target: human GLP-1 receptor (human, UniProt P43220 24-463); assay: cell-based or functional assay

Binder	In vitro activity (%) compared with native peptide: vs GLP-1
B1	10.5%
B2	< 0.1%
B3	23.2%
B4	2.1%
B5	4.01%
B6	20.9%
B7	34.4%
B8	0.2%
B9	1.4%
B10	28%
B11	42.2%
B12	41.2%
B13	5.9%
B14	0.4%
B15	< 0.1%
B16	< 0.1%
B17	20.1%
B18	64.5%
B19	2.1%
B20	17.8%
B21	23.3%
B22	28.1%
B23	82.6%
B24	< 0.1%
B25	1.8%

target: T1, human GIP receptor; assay: cell-based or functional assay

Binder	In vitro activity (%) compared with native peptide: vs GIP
B1	2.6%
B2	< 0.1%
B3	40.1%
B4	< 0.1%
B5	< 0.1%
B6	57.7%
B7	5.2%
B8	< 0.1%
B9	< 0.1%
B10	< 0.1%
B11	118%
B12	< 0.1%
B13	< 0.1%
B14	< 0.1%
B15	< 0.1%
B16	< 0.1%
B17	59.7%
B18	< 0.1%
B19	< 0.1%
B20	22.7%
B21	58%
B22	47.1%
B23	< 0.1%
B24	< 0.1%
B25	< 0.1%

target: human GCG receptor (human, UniProt P47871 26-477); assay: cell-based or functional assay
Sequence (P47871 26-477): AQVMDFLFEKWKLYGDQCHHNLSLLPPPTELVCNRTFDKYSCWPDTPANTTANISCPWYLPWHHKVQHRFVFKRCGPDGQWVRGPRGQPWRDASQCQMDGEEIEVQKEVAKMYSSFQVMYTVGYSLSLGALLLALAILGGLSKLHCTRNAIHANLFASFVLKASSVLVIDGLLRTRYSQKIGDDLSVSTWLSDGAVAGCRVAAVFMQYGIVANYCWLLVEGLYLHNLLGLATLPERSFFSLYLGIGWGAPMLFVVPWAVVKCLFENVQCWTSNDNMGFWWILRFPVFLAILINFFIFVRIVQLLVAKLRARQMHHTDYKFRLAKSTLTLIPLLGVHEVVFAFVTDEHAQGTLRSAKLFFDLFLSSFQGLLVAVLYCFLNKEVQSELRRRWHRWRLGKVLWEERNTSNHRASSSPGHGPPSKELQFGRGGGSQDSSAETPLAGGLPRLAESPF

Binder	In vitro activity (%) compared with native peptide: vs Glucagon
B1	62.8%
B2	< 0.1%
B3	13.9%
B4	0.4%
B5	9.3%
B6	14.9%
B7	195%
B8	< 0.1%
B9	< 0.1%
B10	< 0.1%
B11	12.7%
B12	9.3%
B13	< 0.1%
B14	< 0.1%
B15	< 0.1%
B16	< 0.1%
B17	140%
B18	0.2%
B19	< 0.1%
B20	267%
B21	29.5%
B22	8.2%
B23	0.1%
B24	< 0.1%
B25	< 0.1%
